From US20110009311A1 (US Dept. of Health and Human Services, published 2011)
Where no end group is shown, it is not given here.

B1: thrombospondin-1 (TSP1), calcium replete, purified from human platelets (ligand)
chain: not shown
B2: MBP-invasin fusion protein (ligand)
chain: AVIGDGAPANGKTAITVEFTVADFEGKPLAGQEVVITTNNGALPNKITEKTDANGVARIALTNTTDGVTVVTAEVEGQRQSVDTHFVKGTIAADKSTLAAVPTSIIADGLMASTITLELKDTYGDPQAGANVAFDTTLGNMGVITDHNDGTYSAPLTSTTLGVATVTVKVDGAAFSVPSVTVNFTADPIPDAGRSSFTVSTPDILADGTMSSTLSFVPVDKNGHFISGMQGLSFTQNGVPVSISPITEQPDSYTATVVGNTAGDVTITPQVDTLILSTLQKKISLFPVPTLTGILVNGQNFATDKGFPKTIFKNATFQLQMDNDVANNTQYEWSSSFTPNVSVNDQGQVTITYQTYSEVAVTAKSKKFPSYSVSYRFYPNRWIYDGGTSLVSSLEASRQCQGSDMSAVLESSRATNGTRAPDGTLWGEWGSLTAYSSDWQSGEYWVKKTSTDFETMNMDTGALVQGPAYLAFPLCALAI

What follows are binders tested against T1, α3β1 integrin (endogenous on human cells: MDA-MB-435 breast carcinoma, HUVEC, HDME, OH-1 SCLC) (human, UniProt P26006 33-1051; P05556 21-798) (assay: cell-based or functional assay).
T1 sequence (P26006 33-1051, chain 1 of 2): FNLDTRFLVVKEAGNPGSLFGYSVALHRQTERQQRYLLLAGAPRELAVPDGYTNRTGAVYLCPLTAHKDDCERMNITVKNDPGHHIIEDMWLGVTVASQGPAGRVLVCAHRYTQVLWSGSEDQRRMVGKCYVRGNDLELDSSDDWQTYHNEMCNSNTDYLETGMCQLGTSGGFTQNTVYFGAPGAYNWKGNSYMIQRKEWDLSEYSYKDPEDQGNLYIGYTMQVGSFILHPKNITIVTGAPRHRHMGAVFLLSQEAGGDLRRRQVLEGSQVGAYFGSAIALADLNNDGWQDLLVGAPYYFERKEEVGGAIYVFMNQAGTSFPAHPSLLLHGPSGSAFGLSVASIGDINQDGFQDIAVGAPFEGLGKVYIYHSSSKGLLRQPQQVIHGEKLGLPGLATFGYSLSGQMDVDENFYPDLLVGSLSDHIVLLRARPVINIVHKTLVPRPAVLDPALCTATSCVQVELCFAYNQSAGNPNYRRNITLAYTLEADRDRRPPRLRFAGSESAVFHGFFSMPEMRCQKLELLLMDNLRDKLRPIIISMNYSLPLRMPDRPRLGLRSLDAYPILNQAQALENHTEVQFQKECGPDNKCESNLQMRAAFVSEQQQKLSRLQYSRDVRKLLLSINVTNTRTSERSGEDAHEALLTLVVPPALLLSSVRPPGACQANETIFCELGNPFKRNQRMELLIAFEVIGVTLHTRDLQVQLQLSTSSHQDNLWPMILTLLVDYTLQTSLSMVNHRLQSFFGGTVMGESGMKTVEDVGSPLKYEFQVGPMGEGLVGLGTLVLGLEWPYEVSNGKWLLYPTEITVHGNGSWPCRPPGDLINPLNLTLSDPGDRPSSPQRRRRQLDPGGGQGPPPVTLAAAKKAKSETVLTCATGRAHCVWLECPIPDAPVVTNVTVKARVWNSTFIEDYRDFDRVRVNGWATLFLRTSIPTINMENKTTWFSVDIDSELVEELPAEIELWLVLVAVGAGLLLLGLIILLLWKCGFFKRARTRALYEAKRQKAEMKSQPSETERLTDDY
T1 sequence (P05556 21-798, chain 2 of 2): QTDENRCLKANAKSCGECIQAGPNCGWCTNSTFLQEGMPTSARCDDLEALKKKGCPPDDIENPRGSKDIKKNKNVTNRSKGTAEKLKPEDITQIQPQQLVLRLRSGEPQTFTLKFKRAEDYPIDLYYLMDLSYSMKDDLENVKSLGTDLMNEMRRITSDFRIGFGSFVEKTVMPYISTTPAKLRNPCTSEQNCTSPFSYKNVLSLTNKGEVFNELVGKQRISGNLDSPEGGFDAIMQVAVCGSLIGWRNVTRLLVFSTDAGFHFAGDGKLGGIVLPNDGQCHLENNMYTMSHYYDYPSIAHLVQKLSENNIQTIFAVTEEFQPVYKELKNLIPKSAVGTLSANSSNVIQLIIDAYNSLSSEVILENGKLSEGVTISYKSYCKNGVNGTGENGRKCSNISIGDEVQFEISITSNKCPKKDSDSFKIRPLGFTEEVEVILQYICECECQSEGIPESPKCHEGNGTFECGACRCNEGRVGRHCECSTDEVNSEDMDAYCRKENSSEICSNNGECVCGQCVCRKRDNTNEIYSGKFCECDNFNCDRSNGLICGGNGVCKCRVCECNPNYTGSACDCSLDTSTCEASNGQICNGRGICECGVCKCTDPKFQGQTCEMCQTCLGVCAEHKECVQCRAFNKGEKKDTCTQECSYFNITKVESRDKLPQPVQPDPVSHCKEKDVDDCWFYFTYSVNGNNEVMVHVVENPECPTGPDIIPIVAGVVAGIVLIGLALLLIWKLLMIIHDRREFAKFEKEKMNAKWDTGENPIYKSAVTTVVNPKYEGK

Row | Binder | IC50, inhibition of OH-1 SCLC cell proliferation by soluble peptide | IC50, inhibition of MDA-MB-435 cell adhesion to peptide 678, GD6 or TSP1 by the soluble laminin peptide (data not shown) | IC50, inhibition of OH-1 SCLC cell proliferation by soluble protein
1 | FQGVLQNVRFVF [TSP1 peptide 678] | 6 µM |  | 
2 | KQNCLSSRASFRGCVRNLRLSR [murine laminin-1 peptide GD6] |  | 700 µM | 
3 | B1 |  |  | 0.04 µM
4 | B2 |  |  | 0.08 µM

Molecular target: T1, α3β1 integrin (endogenous on human …)
Assay: cell-based or functional assay
Remark: another data set of the same source

Row | Binder | IC50, inhibition of MDA-MB-435 cell adhesion to immobilized peptide 678 (hexosaminidase method) | IC50, inhibition of MDA-MB-435 cell adhesion to immobilized peptide 678 (microscopic adhesion assay)
5 | FQGVLQNVRFVF [TSP1 peptide 678] | 15 µM | 3.5 µM
6 | FQGVLQNVAFVF (also called control peptide 690) [peptide 690] |  | > 300 µM
7 | FQGVLANVRFVF [peptide 687] |  | 3 µM
8 | FQGVLQNVRAVF [peptide 692] |  | 18 µM
9 | FQGVLQNVRFVA [peptide 693] |  | 27 µM
10 | FQGVLQNVHFVF [peptide 694] |  | 54 µM
11 | FQGVAQNVRFVF [peptide 695] |  | 5 µM
12 | FAGVLQNVRFVF [peptide 696] | 12 µM | 1.8 µM
13 | AQGVLQNVRFVF [peptide 697] |  | 5 µM
14 | FQGVLNNVRFVF [peptide 698] |  | 3 µM
15 | TPGQVRTLWHDP (also called (part of C6)) [TSP1 peptide 701] |  | > 300 µM
16 | FQGVLQNVKFVF [peptide 702] | 25 µM | 6 µM
17 | Ac-QGVLQNVRF [peptide 704] | ~100 µM | 15 µM
18 | FRGCVRNLRLSR [laminin peptide 679] | 700 µM | 
19 | FQGVLQSVRFVF [peptide 705] | 15 µM | 
20 | FQGVLQQVRFVF [peptide 717] | 30 µM | 
21 | FQGVLQDVRFVF [peptide 718] | 12 µM | 
22 | FQGVLQNLRFVF [peptide 719] | 16 µM | 
23 | Ac-LQNVRF-NH2 [peptide 681] |  | 500 µM
24 | FQGVLQNVRF [peptide 682] |  | 6 µM
25 | QGVLQNVR [peptide 683] |  | > 300 µM
26 | QGVLQNVRFVF [peptide 685] |  | 24 µM
27 | LQNVRFVF [peptide 684] |  | 300 µM
28 | VLQNVRFVF [peptide 688] |  | > 100 µM

Molecular target: T1, α3β1 integrin (endogenous on human …)
Assay: cell-based or functional assay
Remark: another data set of the same source

Row | Binder | IC50 (µM), inhibition of MDA-MB-435 cell adhesion to immobilized peptide 678
29 | FQGVLQNVRFVF [TSP1 peptide 678] | 3.5 µM
30 | FQGVLQNVAFVF (also called control peptide 690) [peptide 690] | > 300 µM
31 | FQGVLANVRFVF [peptide 687] | 3 µM
32 | FQGVLQNVRAVF [peptide 692] | 18 µM
33 | FQGVLQNVRFVA [peptide 693] | 27 µM
34 | FQGVLQNVHFVF [peptide 694] | 54 µM
35 | FQGVAQNVRFVF [peptide 695] | 5 µM
36 | FAGVLQNVRFVF [peptide 696] | 1.8 µM
37 | AQGVLQNVRFVF [peptide 697] | 5 µM
38 | FQGVLQNVKFVF [peptide 702] | 6 µM

What follows are binders tested against T1, α3β1 integrin (endogenous on human …) (assay: direct MDA-MB-435 cell adhesion to adsorbed peptide (FIG. 8)).

Row | Binder | binding result
39 | FQGVLQNVAFVF (also called control peptide 690) [peptide 690] | no binding (tested: adsorbed at 10 µM)

What follows are binders tested against T1, α3β1 integrin (endogenous on human …) (assay: MDA-MB-435 cell adhesion and inhibition of adhesion (FIG. 3A and results not shown)).

Row | Binder | binding result
40 | TPGQVRTLWHDP (also called (part of C6)) [TSP1 peptide 701] | no binding

The binders below were run against T1, α3β1 integrin (endogenous on human …) (assay: soluble peptide, inhibition of MDA-MB-435 cell adhesion to immobilized peptide 678).

Row | Binder | binding result
41 | QGVLQNVR [peptide 683] | no binding (tested: >300 µM)
